Experimental data reported in the supplement of paper PMC9170038.

Tested on: K4 kissing-loop RNA reporter
Test: apparent KD of K4 kissing-loop reporter; higher = weaker reporter binding
Settings: Eterna round: R107
Description: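 RNA-MaP round R107: designed RNA switches with theophylline, tryptophan, arginine or FMN aptamers are transcribed on-chip within common flanks. They are titrated with a labelled K4 kissing-loop RNA reporter in RNA-MaP buffer (100 mM Tris pH 7.5, 80 mM KCl, 4 mM MgCl2), without ligand or with the indicated ligand. Median apparent KD per design.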

[1] = input ligand: theophylline 20 uM
[2] = input ligand: tryptophan 2.4 mM
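Also: bound reporter read as fluorescence of individual clusters on recovered sequencing chips by microscopy, with normalized cluster intensities fitted with a binding model.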

| Sequence | apparent KD of K4 kissing-loop reporter (input ligand: FMN 200 uM) [nM] | apparent KD of K4 kissing-loop reporter (input ligand: arginine 13.2 mM) [nM] | apparent KD of K4 kissing-loop reporter (input ligand: none) [nM] | apparent KD of K4 kissing-loop reporter [1] [nM] | apparent KD of K4 kissing-loop reporter [2] [nM] |
| --- | --- | --- | --- | --- | --- |
| ACGUCCGGAUUAAUCGUGGGCAUGGUCGAUACCAGAUCUUUAAUGAUCCCUUGGCAGCGACAUGAGUGAUGUUCAUGUGCGAUGA [KL-XTheo-A8 #analogue] | 188 | 152 | 186 | 244 | 179 |
| ACGUCCGGAUUGAUCGUGGGCAUGGUCGAUACCAGUAGUUUAAUCUACCCUUGGCAGCGACAUGAGUGAUGUUCAUGUGCGGUGA [#14 K4 Theophylline A Exclusion] | 194 | 191 | 188 | 402 | 200 |
| ACGUGCACCAGUGAUGUUGGAAAAUAUGAAGGAGCGGGUGAAAGCCCAGGUAGGUCGCAUAAUAGCACGAGCCACGAAAGUGGCA | 131 | 175 | 184 | 154 | 117 |
| AGAACUGUCUGAGAUACCAGCCAGGAAGUGAUGUUUCCAGCUCCACGAAAGUGGAGCCAUGGCCCUUGGCAGCUCAGACAGUUCA [Omei KL Theo B SS A v5] | 150 | 141 | 147 | 105 | 154 |
| AGACUACCACACUGUCAAUAGACAGUGAGCUAGGAUAUGCUGAUAAGCAGAAGGAGUGAUGUUCCGAGGUAGUCAAUAAAAUAAU [FmnAX 13 G29+G66] | 395 | 273 | 261 | 357 | 257 |
| AGACUACCACACUGUCAAUAGACAGUGGACUAGGAUAUGCUGAUAAGCAGAAGGAGUGAUGUUCCUCGGUAGUCAAUAAAAUAAU [FmnAX 13 G28+C67] | 323 | 318 | 286 | 489 | 273 |
| AGAGAUAUAUGAGGAUAUGAGUUAGUUAAUGAGUUAGUUUUAGUGUUGUUUGGUUAGUGAUGUUAUUUAGAAGGCGUGAGUGAUG [cxfsmullin] | 89.7 | 66.4 | 67.7 | 96.9 | 60.8 |
| AGAGUUAUGAGAGGAUAUGCGGCUAGUACUCAAAGAGUACUAGCAGCAGAGUGAUGUUCUGUGAAAGCAGAAGGUUCAUAACUCA [#06 K4 FMN B Same State] | 124 | 668 | 627 | 563 | 641 |
| AGAUUCGACACGGCCGCCACUCGUGGUGGAUUACCUAGUGUCGAAGUUGAGUGAUGUUCAAGUACGAGGACCGGGUGUUGAGUCU [KL-XTryp-B8 #analogue] | 420 | 310 | 370 | 403 | 500 |
| AGAUUCGACACGGCCGCCACUUCCAGUGGCUGGUGUCAUGGUGCGCGUGAGUGAUGUUUAUGUGGAAGGACCGGGUGUUGAGUCU [KL-XTryp-B1 #analogue] | 938 | 554 | 917 | 606 | 1190 |
| AGCAAUAUCACGGCCGCCACUGAAUAUUGUUUUUAUAUUUAGAAAUCUUGCCAGUGAUGUUGGUUCAGGACCGGGUGAGUUAAUA [JR_SSTryptoB_Sub005] | 435 | 430 | 466 | 450 | 401 |
| AGCAAUAUCACGGCCGCCACUGAAUAUUGUUUUUAUAUUUAUAAAUCUUGCCAGUGAUGUUGGUUCAGGACCGGGUGAGUUAAUA [JR_SSTryptoB_Sub004] | 573 | 603 | 783 | 665 | 412 |
| AGCCGAAAGGCGAGUGCUGUCACUCCGGAAGGAGCGGCGAAAACGCCAGGUAGGUCGCCGGAGUGAUGUUCCGGUGCAGCACUCA [Omei KL Arginine A Exc B v2] | 603 | 410 | 932 | 521 | 492 |
| AGCGGCCAGUCGGCCGCCACUCCGGGCAGUGAUGUUGCGAAGUGUCUACUAGAGUGAUGUUCUAAGAGGACCGGGACUGACGUAU [Exclusion Tryptophan B Gf 11] | 434 | 394 | 534 | 476 | 332 |
| AGCGUCUGAAGAGGAUAUGACCAGUGAUGUUGGUUACUACCUCAAAUUAGUGUCUCGUCAAAAUCGUCAGAAGGCUUCGACGAGC [#09 K4 FMN B Exclusion] | 122 | 96.2 | 95.7 | 92.8 | 91.2 |
| AGGAGCGUGCGAUGCAAAUCGCACGCUCCUCGAGGACCGGUACGGCCGCCACUCGCUCGCGCCGAGUGAUGUUCGGCCGGCGAAC [#2 Same State - Tryptophan A Attempt #10 (HarryS)] | 266 | 236 | 265 | 289 | 452 |
| AGGCACGAGCAAGGAUAUUGAGUAGAGUGAUGUUCUGCCUGGGUUGGCUCGAAAGAGCCUUCUCAGCGAGAAGGUGCUCGUGCCU [#2 Same State - FMN A Attempt #22 (HarryS)] | 290 | 603 | 616 | 367 | 719 |
| AGGGCACUGGCGGCCGCCACUUUUCGUGCGAACCAAAGCUAGUGAUGUUGGCUCCCUAGUUGCAAAAGGACCGGGCCGUUCAUCU [theeternabot_sameState_KL_Trp_B_37] | 315 | 195 | 302 | 296 | 211 |
| AGGUUUUGAUUAGGAUAUGCACUGACGACGAGAAUAUAGUGAUGUUAUAUACUACGAAUUAGUAGAGUAGAAGGGAUUGAGGUUU [SSFMNB.Y] | 344 | 265 | 330 | 322 | 245 |
| AGGUUUUGAUUAGGAUAUGCACUGACGAUGAGAAUAUAGUGAUGUUAUAUACUACGAAUUAGUAGAGUAGAAGGGAUUGAGGUUU [SSFMNB.Z] | 568 | 338 | 414 | 459 | 335 |
| AGUAAUAUCACGGCCGCCACUGAUUAUUGUUUUUAUAGUUAUAAAUCUUGCCAGUGAUGUUGGUUCAGGACCGGGUGAGUUAAUA [JR_SSTryptoB_Sub001] | 429 | 469 | 584 | 727 | 299 |
| AGUCCACUCUAAAGAGUGGACCUAAGGGAUACCAGUGAUGUUGGUCACCCUUGGCAGCCCGCUGUCAUCGAUAAAGAUGGCAGGA | 133 | 113 | 129 | 127 | 125 |

| Sequence | apparent KD of K4 kissing-loop reporter (input ligand: FMN 200 uM) [nM] | apparent KD of K4 kissing-loop reporter (input ligand: arginine 13.2 mM) [nM] | apparent KD of K4 kissing-loop reporter (input ligand: none) [nM] | apparent KD of K4 kissing-loop reporter [1] [nM] | apparent KD of K4 kissing-loop reporter [2] [nM] |
| --- | --- | --- | --- | --- | --- |
| AGUGAUAUAUGAGGAUAUGGGAUUGUUAAUGAGUUAGUUUUAGUGUUGUUUGGUUAGUGAUGUUAUUUAGAAGGCGUGAGUGAUG [kuktrmullin] | 93.6 | 87.4 | 96 | 116 | 70.4 |
| AGUGUUGUAUGGCGGUUUGUCACUUAGGAUCAGGAUAUAUAAACAAAUAGAAGGGAUGGCGGAGUGAUGUUCCGCCGGCCGCCAU [FMN A Exl V7] | 132 | 128 | 121 | 126 | 121 |
| AGUGUUUGGUUAGAUACCAGCCGUCUGUGGAUAAUCCUCAGACCGCCAGUGAUGUUGGCAGGCCCUUGGCAGCUAACAGGACAGA [Ersoed] | 198 | 213 | 275 | 233 | 224 |
| AGUUAUGUAUCAGGAUAUUAGUGAUGUUUGUUUAUGUUAGUGAUGUUGAUAUUUGUUUUAUGUAUUUAAGAAGGGAUUGAGAUGU [ccgcmullin] | 57.1 | 20.7 | 48 | 30.6 | 46.6 |
| AUAAUAUGAGUGAUGUUCAUGAAACCUGAAGGAGCGGACGAAAGUCCAGGUAGGUCGCAGGACUCCUUCAACAUGGGAGAGGGAG [KL-SSArg-A8 #analogue] | 153 | 180 | 166 | 194 | 150 |
| AUAGCUGAUAGCAGUGAUGUUGCUUCAGAUACCAGACGAGAUCAUGUCCCUUGGCAGCUGACAUGGCAAGUGCUAGGUUAGAUGA [#11 K4 Theophylline A Exclusion] | 140 | 114 | 125 | 120 | 130 |
| AUAGGAUUGCGAGGAUAUCCUUCCCACGUCGAAGUACCGUGCUUGAUGGAGUGAUGUUCGAUCAGAGGAGAAGGUGCGGUUUUGU [Same State FMN B GF24] | 292 | 593 | 942 | 732 | 944 |
| AUGGGUCCACGAAGGAGCGCCGUGCAGUGAUGUUGCAGUUAGAUCCAGUGAUGUUUGGGCCGGCAGGUAGGUCGCGUGGAUUUAU [Exclusion Arginine B GF 22] | 249 | 199 | 249 | 243 | 222 |
| AUGUAUGAAUUAGGAUAUCGUUAGCCUAUCAUAUAUAUGAUAAAUGGAUAUGUCGUAGUGAUGUUACGAGAAGGAGUGUGGAGUA [KL-XFMN-B7] | 55.8 | 62.9 | 55.4 | 82.7 | 39 |
| AUGUCUUAUAAACUCAUGGUUUCGAUCGAUACCAGUAGCGAGAGUUACCCUUGGCAGCGACAUGAGUGAUGUUCAUGUACGAAGA [KL-XTheoA5] | 109 | 98.7 | 103 | 106 | 90 |
| AUUAAUUUCAGAGGAUAUCGUUAUUUUUUUAAGUAUAAUCUAUUAUGCAGUGAUGUUGCUAUUAAUCGAGAAGGCUGAUUUAUAA [JR_ExcFMNB_Sub001] | 114 | 141 | 79.5 | 134 | 78.5 |
| AUUACAUCUGAAAAGCUAGUGAUGUUAGCUCGAGGACCGGUACGGCCGCCACUCGCAUAGCGAGGCCAAGUCGCGGUUAACGGAG [theeternabot_exclusion_KL_Trp_A_4] | 96.7 | 86.7 | 97.2 | 89.1 | 83.3 |
| AUUAUAUAGGCGGCCGCCACUAGUGAUGUUAGUGAUGUCAUAAUAUAAUGAUAAAUUAUAUUGCGUAGGACCGGGCCUAAAUAUU [#15 K4 Tryptophan B Exclusion] | 108 | 62.3 | 86.3 | 100 | 111 |
| AUUAUAUUGUGAAGGAGCGCGCAUAGUAGUGAUGUUACUAUGACAUAUCUUAUUUAAUUCUCGCAGGUAGGUCGCACAUUAUAUA [JR_Nu_ExcArginiB_Sub026] | 92.5 | 64.8 | 79.7 | 65.5 | 71.8 |
| AUUCCCACUUAAGGAUAUCAAGGAGUGAUGUUCCAAAUGGUCCACGUCGCGGCUCUCCGGGCACAAUGAGAAGGUAAAGCUGGGU [theeternabot_exclusion_KL_FMN_B_43] | 278 | 275 | 276 | 370 | 210 |
| AUUGUACAGGGAAGGAGCGUCGACCAGUGAUGUUGGAGUUAAAUACCAGUGAUGUUGGUUAGGCAGGUAGGUCGCCCUCAAGUAG [#10 K4 Arginine B Exclusion] | 180 | 126 | 141 | 219 | 118 |
| AUUUAAUUAACUGAUACCAGACUUUAAGUAAUUAUUAAAACUAGUGAUGUUAGUUUAUCUGUCCCUUGGCAGCAGUUUCUACUUA [JR_Nu_ExcTheophyB_Sub020] | 144 | 136 | 158 | 135 | 127 |
| AUUUAAUUAACUGAUACCAGACUUUAUGUAUUUAUUAAAACUAGUGAUGUUAGUUUAUCUGUCCCUUGGCAGCAGUUUCUACUUA [JR_Nu_ExcTheophyB_Sub021] | 93.5 | 113 | 105 | 105 | 83.4 |
| AUUUAGACGAGUGAUGUUCGUGAUUUUUCAGAGGAUAUGCGUAAUAGCAGAAGGCUGUAUUUAUAUAUAUUUUGAUUUUUUUAAA [JR_ExcFMNA_Sub009] | 69.6 | 81.6 | 59.5 | 82.8 | 62.3 |
| AUUUAGACGAGUGAUGUUCGUGUUUUUUCAGAGGAUAUGCGUAAUUGCAGAAGGCUGUAUUUAUAUAUGUUUUGUUUUUUUAAAA [JR_ExcFMNA_Sub008] | 80.4 | 92.1 | 75.4 | 93.6 | 69.3 |
| AUUUUGUUGUCAGGAUAUUAGUAUGGUUUUGGUUUGUUAGUGAUGUUGAUGUUUUGUUUAUGUAUUUAAGAAGGGAUUUAGCGGU [aqaawgumullin] | 474 | 352 | 400 | 401 | 343 |
